Results taken from the DeepSol protein solubility set.

assay: soluble on expression in E. coli; label from the status in PepcDB or PDB records

| Sequence | soluble on expression in E. coli |
| --- | --- |
| MNILKHFPSYVGPSKIRTLVIPIGHWTRKEFNNAVQKLSEFNEIHLSDVTPIDSPIFTPQGFPHGKLFFDFLTIDHDDALELFLYDFEPFRKTFVIIGLVNDYSDPLTNLNFMKEKYPTLISPNLVYASSTPTKELEQTIDTMENVFASSPDMQKNIETIMCDIARNFLTALNSYYSSYKHVTLRSPGAIGGNAVLKTTLIRQNSYTSSSSSTPMSAVQSSVSSSSKAGSVTTASKRLSSFEMTTNSLKRSASLKLATTLSTSENRSQQKSLGRQMKILGNFQLLAGRYVDALNSFVDAITTLYKVRDYLWLGSALDGISICFLLLSYLGLSYQIPQIVSLICPVEKLNFESSSTGISPVDSNSKATASTTASSTPRNSISIAAMQSPRNSIMSLSAPALNIDVENINLPLLIKCISDKVLYYYDLSLMHNSEYAPQVVYCEFLLKTLTFMTSCYKSSEFSKDVLDNIVKNQHRALSDIPNSPMFPRFEVYFYSNKLFELQLKEMQVEAQIKIYSTMAEVYRLLGYKRKQLFVLRLLMVALLATPNKIAWHPDYRTLIDTIIELLNINESEAKINVDDPSQSTWLILQKKILQLCIKVSRKINDFEYVAKFSSILITKYTHLLNQSEQDALFKEYIQPSITNESITSYWDPFILREVVINRILDSDPTSNEIPLESDVSSLESLENRQKTQDINPQEVFNPFKRVQPTSFVSNNSTKVPILVFLVGDKAEFTCRVQNPFKFDFTINDIQLDEEISEFCEIDRKAVSYSGPYNVKAESIRSITLPLIIKKPTYKKIYEISCLKISILKLPLQKFDIINDSRRSNPVEEEAEYSKCIYGKLKIKILPEQPQLELLSTSKMTRNSWMMLDGTKTDFHITVRNKSLSCAINHIKIIPMNNIEQMLKPDYWKKMPPDDLYIMEKQLDWLSKSCVRIIKLPTVIKPNETITFDLELDNTAVPFNFTGFDLLIEYGMSATDESCIYLKKLSIPYEVTLRRTIEVPSMDIIPLNELFSSQVENVDWIEYVMSKIRAESNLHSRDFILLLLDFRNSWIDGIKLNVQFEDFTSNEYHVEASHTSRIIVPIKKIDYKKYNFENTPIPRIYPGRQFIQSGLNEEQTIEMRQKFWCREHIISKLKCNWKLTTDQSVTGSVDFNKFIEKFDHKMVYTIYPGRLFYGVQLLLDEPKVKVGEIINLKIITEPTSTCRRKQNSTVNFLDIVIFDSKTSKILPRSNRRILYNGSLTKPISTTKVSEINLEIIPIEKGRYEFSVCISKSNNQDGIIQFDSENVILSVI | soluble |
| MNILLFGKTGQVGWELQRSLAPVGNLIALDVHSKEFCGDFSNPKGVAETVRKLRPDVIVNAAAHTAVDKAESEPELAQLLNATSVEAIAKAANETGAWVVHYSTDYVFPGTGDIPWQETDATSPLNVYGKTKLAGEKALQDNCPKHLIFRTSWVYAGKGNNFAKTMLRLAKERQTLSVINDQYGAPTGAELLADCTAHAIRVALNKPEVAGLYHLVAGGTTTWHDYAALVFDEARKAGITLALTELNAVPTSAYPTPASRPGNSRLNTEKFQRNFDLILPQWELGVKRMLTEMFTTTTI | soluble |
| MNILQFNVRLAEGGAAGVALDLHLRALQKGLTSHFVYGYGKGGKKSVSHHRYPQVIKQTPRGTAIANIALFRFLNRDLFGNLDNLYRTVIQTSGPLVLHFHVLHSYWLNLADIVTFCEKVKAQKPDVTLVWTLHDHWSVTGRCAFTDGCEGWKSGCQKCPTLSNYPPVRVDRAHQLIDGKRQRFRDMLRLGCRFISPSQHVAEAFNSVYGAGRCQIINNGIDLATEAILAQLSPVPLNPGKPRIAIVAHDLRYDGKTDQRLVHDMMALGEKIELHTFGKFSPFTGQNVVNHGFETDKRKLMSALNEMDALVFSSRVDNYPLILCEALSIGVPVIATHSEAAQEVLAKSGGQTFAATDVLRLAQRRKPEIAQAVFGATLDAFRMRSRVAYSGQQMLEEYVSFYQNLLEHHHHHH | not soluble |
| MNILQFNVRLAEGGAAGVALDLHQRALQQGLASHFVYGYGKGGKESVSHQNYPQVIKHTPRMTAMANIALFRLFNRDLFGNFNELYRTITRTAGPVVLHFHVLHSYWLNLKSVVRFCEKVKNHKPDVTLVWTLHDHWSVTGRCAFTDGCEGWKTGCQKCPTLNNYPPVKIDRAHQLVAGKRQLFREMLALGCQFISPSQHVADAFNSLYGPGRCRIINNGIDMATEAILADLPPVRETQGKPKIAVVAHDLRYDGKTNQQLVREMMALGDKIELHTFGKFSPFTAGNVVNHGFETDKRKLMSALNQMDALVFSSRVDNYPLILCEALSIGVPVIATHSDAAREVLQKSGGKTVSEEEVLQLVQLSKPEIAQAIFGTTLAEFSQRSRAAYSGQQMLEEYVNFYQNL | soluble |
| MNILTLMETFSAVVEAGSFTGAAEKLGLSKSFVSKQVSTLEVELGCRLLYRTTRTLSLSDEGSQFYNHCKIIMAEAENARAEVMDRQGAPRGKIRMTIPQSLIISGFGQLLIDFQLQYPEIKLEVIASGRIEDLVKEGIDIALRVGQLEDSSLISRRLMDCTFQVVASSDYIKKWGEPFQPADLMQHNCLIYGDSKINKGWPFRSPSGESITVKAKGNFISNDGGLVVEGMLNGLGIGFGPSFLFNEHVEKGRLKLLLSDYYQPPTAISALYPLNRNLSRRIRLLIDYLSERLSV | not soluble |
| MNIQITFTDSVRQGTSAKGNPYTFQEGFLHLEDKPHPLQCQFFVESVIPAGSYQVPYRINVNNGRPELAFDFKAMKRA | soluble |
| MNIQKMYTAVDVHVNGEAFRVMKDVPCKYYYSLEQLNEQFSGELAEEMKLLLNEPRGFIGLNGCIVVPSIHNEVDAAVLFFNHEGSIPLHYGGIVAVITMLLESGYLKKRESNQYKIETLSGIFLVHAYVENDEVISVSFESKLCYLIEENLQVGNVSYSLIQADKVYAVVEKGAYSPEIRVENISELKRWGEATLQAIQKQSLIKRLILVDPSQKEKNHIKSITFHEDNFIVRSPGFVSTIVSYVHALFKNDYMADKPFKNESIFNSFITVEKVKKEELGYIFRFESRGFITGMQTFLLDPTDPFPAGFLLKLEHHHHHH | not soluble |
| MNIREPPDVVIFCELIYGAAITCLKKFFLRDVFKIFITSHKANIDLMDVVIKSFTDSTNSGKLSKAWAHAQNCHTNFYELKNMKKKLKQNILKSVSEMNNIIKKADIDMINNNLKPFLKQMEKLPTKKTVTIGNESFEYNKTASWYN | not soluble |
| MNISYIPEHIEQLTIMNVPEYYKINDNHAFIVRSKAETDFWLKTHYGFEVMNGHVFYNEMMTDFQAEVQLRMNPNSKFDQAGLFVMISENCWLKTSLEYIPEGPSHLGAVVTNNGYSDWSTQDYPTEAAKQQLRFRIIRKRGDYTIYVKKRHQWEQIRIAHLMEDIGNEPIKIGFYTCSPSKNKGFETEFLHFTIEELLEHHHHHH | soluble |
| MNITKIDWQKVNGLLPVIIQNISTREVLMLGYMNEEALTKTIKERKVTFFSRTKQRLWTKGEISGNFLNVEEMSLDCDNDTLLILVDPIGATCHTGEYSCFHQFTSPQSENKKQQFANWAWFIKLEQHLKEKKNADPSNSYTATLHAKGTKKIAQKVGEEGVETALAAVAQDKAEVISEATDLVYHLTVLLHNQDLQWYEIIAKLQERHQGIGLHPEGGNK | soluble |
| MNIYTDKKVVAVGGGHGLGRMLAALKDFGSNATGIVATTDNGGSTGRIRHCQGGIAWGDTRNCINQLITEPSISSMMFEYRFKGTGELDGHNLGNLMLTALDNLSVRPLDAINLIRNMLKVDVNILPMSEHPSDLSALSVNGQWVTGETNVDEMETDLRRLDLSPEVPATKEAVTALAEADAIILGPGSFLTSIMPPLLLPELGKAIAANRKAKVIFVANLSPEYGPAGRMSMAQKLEWCERACQGRRIDVVLAEETDQKVLEQWNVVTEPLASTNRDWRHDRDKLKAAIENQLLTKLEHHHHHH | soluble |
| MNKEITFDKLPEAVTYLTEQVSAIKEMVSALHPPVPEEKSLIGIDEACVIIQKAKPTIYALVRKGIVPAYKRGKKLYFYKEELLQWVESGRKGATTAISSEEQLAMMRQEVRRKPKSIK | not soluble |
| MNKFVRLAAIAGLLLAGASYATDTTYRIDQLPQLRQEPEHATVSERVTSRFTRSHYRQFALDDQFSAKIFDRYLNMLDYSHNVLLASDVAQFADKKYSLDKELKSGQLDTPFALFNLAQKRRFERYQYALSVLDRPMVFTGNDTIDIDRAKAPWPSSEAELNALWDAKVKYDQLNLKLAGKTDKEIKETLTKRYQSAIKRLTQSNSEDVFQLIMNAFAREIDPHTNYLSPRNTEQFNTEMSLSLEGIGAVLQMDDDYTLINSMVPGGPAAKSKTIAVGDRVIGVGQAGKPMVDVIGWRLDDVVALIKGPKGSKVRLEILPAGKGTKPRTVTLTRERIRLEDRAVKMSVKTIGKERVGVLDIPGFYVGLTEDVKVQLQKLEKQNVSSIIIDLRSNGGGALTEAVSLSGLFIPSGPVVQVRDNNGKVREDSDTDGVVYYKGPLVVLVDRYSASASEIFAAAMQDYGRALIVGEPTFGKGTVQQYRSLNRIYDQMLRPEWPALGSLQYTIQKFYRVDGGSTQRKGVTPDIVMPTGVDPAETGENFEDNALPWDRINAASYTKTGDLKPWEPELLKNHAERIAANPEFQYIQKDIERYKALKDKRNIVSLNYAQREKENRDDDMTRLTRLNERFIREGKKPLKSLDDLPKDYQEPDPYLDETVNIALDLAHKEKAQPQIASRPVAAATAGATVK | not soluble |
| MNKHQKPVLTGQRFKTRKRDEKEKFEPTVFRDTLVQGLNEAGDDLEAVAKFLDSTGSRLDYRRYADTLFDILVAGSMLAPGGTRIDDGDKTKMTNHCVFSANEDHETIRNYAQVFNKLIRRYKYLEKAFEDEMKKLLLFLKAFSEAEQTKLAMLSGILLGNGTLPATILTSLFTDSLVKEGIAASFAVKLFKAWMAEKDANSVTSSLRKANLDKRLLELFPVNRQSVDHFAKYFTDAGLKELSDFLRVQQSLGTRKELQKELQERLSQECPIKEVVLYVKEEMKRNDLPETAVIGLLWTCIMNAVEWNKKEELVAEQALKHLKQYAPLLAVFSSQGQSELVLLQKVQEYCYDNIHFMKAFQKIVVLFYKADVLSEEAILKWYKEAHAAKGKSVFLDQMKKFVEWLQNAEEESESEGEES | soluble |
| MNKLQSYFIASVLYVMTPHAFAQGTVTIYLPGEQQTLSVGPVENVAQLVTQPQLRDRLWWPGALLTDSAVKAKALKDYQHVMAQLASWEAEADDDVAATIKSVRQQLLNLNITGRLPVKLDPDFVRVDENSNPPLVGNYTLYTVQRPVTITLLGAVSGAGQLPWQAGRSVTDYLQDHPRLAGADKNNVIVITPEGETVVAPVALWNKRHVEPPPGSQLWLGFSAHVLPEKYADLNDQIVSVLTQRVPD | soluble |
| MNKPLMSKATAVWLIDNTTLSFRQIADFCGMHELEVQGIADGDVATGVKGFDPVANNQLDAIEIEKGQRDPLYKMKLKFNPAAVGEEKRRGPRYTPLSKRQDRPAAILWLVKFHPELSDGAIAKLVGTTKPTIQSIRERTHWNIGSIQPIDPVALGLCRQTELDAAVQQAARRKAAEGVVMSDDERRKLVSTEQSLSMPDEPRMPSGLEQFGRSEEEKRPADFSDADSFFNLPHGDDADEEEDEDPARAAALEHHHHHH | soluble |
